Experimental data published in patent US20030175270.

Tests used:
[1] = target: JAK1 immunoprecipitated from BMMC lysates (UniProt P52332)
[2] = target: JAK2 immunoprecipitated from BMMC lysates (tyrosine-phosphorylated) (UniProt Q62120)
[3] = target: Lyn immunoprecipitated from BMMC lysates (UniProt P25911)
[4] = target: STAT3 immunoprecipitated from BMMC lysates (UniProt P42227)
[5] = target: STAT5 immunoprecipitated from BMMC lysates (UniProt Q9JIA0)
[6] = target: Tyk2 immunoprecipitated from macrophage lysates (UniProt Q9R117)

Sequence of JAK2 immunoprecipitated from BMMC lysates (tyrosine-phosphorylated) (Q62120 whole entry): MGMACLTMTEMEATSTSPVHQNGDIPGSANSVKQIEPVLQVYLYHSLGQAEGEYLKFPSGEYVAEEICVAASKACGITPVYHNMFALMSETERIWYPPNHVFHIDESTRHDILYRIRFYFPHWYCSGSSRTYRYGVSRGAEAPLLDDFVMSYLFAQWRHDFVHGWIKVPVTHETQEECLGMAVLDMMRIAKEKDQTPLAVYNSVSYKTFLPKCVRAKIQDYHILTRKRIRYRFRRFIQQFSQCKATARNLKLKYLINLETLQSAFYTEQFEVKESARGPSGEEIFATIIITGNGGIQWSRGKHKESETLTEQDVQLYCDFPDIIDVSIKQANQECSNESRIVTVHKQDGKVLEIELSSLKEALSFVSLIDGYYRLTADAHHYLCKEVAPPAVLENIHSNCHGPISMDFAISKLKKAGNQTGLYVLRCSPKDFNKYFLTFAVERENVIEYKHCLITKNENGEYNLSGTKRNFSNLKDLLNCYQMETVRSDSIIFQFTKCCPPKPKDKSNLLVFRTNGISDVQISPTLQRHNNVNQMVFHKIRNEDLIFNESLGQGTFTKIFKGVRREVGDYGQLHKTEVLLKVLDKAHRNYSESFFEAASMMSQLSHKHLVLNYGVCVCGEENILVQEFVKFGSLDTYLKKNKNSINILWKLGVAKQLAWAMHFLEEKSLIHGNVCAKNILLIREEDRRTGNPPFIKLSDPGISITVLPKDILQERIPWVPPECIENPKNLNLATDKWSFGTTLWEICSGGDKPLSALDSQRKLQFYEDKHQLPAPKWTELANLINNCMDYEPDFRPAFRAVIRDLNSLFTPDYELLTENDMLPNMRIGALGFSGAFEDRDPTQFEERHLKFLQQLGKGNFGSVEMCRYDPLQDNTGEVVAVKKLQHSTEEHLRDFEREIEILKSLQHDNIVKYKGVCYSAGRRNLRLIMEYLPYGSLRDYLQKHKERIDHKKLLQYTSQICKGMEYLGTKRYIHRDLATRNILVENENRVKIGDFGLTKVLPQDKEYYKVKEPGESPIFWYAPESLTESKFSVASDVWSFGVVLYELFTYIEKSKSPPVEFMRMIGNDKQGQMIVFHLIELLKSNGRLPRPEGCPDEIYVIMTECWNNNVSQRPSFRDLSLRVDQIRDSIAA
Sequence of Lyn immunoprecipitated from BMMC lysates (P25911 2-512): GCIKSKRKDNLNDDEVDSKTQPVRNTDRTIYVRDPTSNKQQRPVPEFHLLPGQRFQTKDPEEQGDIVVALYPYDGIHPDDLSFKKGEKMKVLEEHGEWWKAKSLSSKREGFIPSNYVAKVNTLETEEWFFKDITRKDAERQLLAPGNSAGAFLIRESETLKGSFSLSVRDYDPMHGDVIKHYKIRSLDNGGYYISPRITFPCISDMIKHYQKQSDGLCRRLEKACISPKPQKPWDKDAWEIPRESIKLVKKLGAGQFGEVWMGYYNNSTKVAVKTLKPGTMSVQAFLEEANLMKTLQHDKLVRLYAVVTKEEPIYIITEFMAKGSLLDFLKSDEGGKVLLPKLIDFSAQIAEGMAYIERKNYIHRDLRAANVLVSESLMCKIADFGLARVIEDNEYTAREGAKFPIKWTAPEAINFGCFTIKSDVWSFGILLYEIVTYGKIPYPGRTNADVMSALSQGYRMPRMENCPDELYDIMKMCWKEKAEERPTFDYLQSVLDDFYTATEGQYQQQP
Sequence of JAK1 immunoprecipitated from BMMC lysates (P52332 whole entry): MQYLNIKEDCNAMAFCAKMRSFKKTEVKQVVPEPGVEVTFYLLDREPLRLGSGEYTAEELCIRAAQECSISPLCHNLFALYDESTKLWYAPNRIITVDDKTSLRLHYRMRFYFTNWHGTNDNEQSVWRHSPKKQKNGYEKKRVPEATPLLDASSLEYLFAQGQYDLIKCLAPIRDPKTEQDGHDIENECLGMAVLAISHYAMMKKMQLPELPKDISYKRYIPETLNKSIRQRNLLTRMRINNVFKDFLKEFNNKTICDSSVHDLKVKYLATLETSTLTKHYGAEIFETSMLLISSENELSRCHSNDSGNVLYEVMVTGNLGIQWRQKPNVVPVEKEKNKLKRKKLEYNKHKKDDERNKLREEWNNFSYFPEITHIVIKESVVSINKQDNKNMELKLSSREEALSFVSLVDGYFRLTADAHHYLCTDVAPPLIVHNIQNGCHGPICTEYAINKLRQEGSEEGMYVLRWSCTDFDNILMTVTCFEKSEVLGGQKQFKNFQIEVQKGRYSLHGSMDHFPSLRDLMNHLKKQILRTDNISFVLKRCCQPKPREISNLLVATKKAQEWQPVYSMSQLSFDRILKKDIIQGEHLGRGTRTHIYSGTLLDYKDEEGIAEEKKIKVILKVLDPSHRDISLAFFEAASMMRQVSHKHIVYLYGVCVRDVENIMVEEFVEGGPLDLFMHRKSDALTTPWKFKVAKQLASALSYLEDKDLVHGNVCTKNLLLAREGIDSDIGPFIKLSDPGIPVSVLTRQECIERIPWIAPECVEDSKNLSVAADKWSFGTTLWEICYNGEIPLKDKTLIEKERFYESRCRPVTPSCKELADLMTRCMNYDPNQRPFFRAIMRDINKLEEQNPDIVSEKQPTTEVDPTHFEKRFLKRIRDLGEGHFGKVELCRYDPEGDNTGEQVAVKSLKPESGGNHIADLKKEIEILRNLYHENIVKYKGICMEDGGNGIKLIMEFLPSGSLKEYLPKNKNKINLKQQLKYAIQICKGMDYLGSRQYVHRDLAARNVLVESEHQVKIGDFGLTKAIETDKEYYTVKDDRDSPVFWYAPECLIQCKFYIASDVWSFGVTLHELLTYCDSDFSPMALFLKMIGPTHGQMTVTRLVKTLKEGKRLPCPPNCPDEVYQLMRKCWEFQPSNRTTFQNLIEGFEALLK
Sequence of STAT3 immunoprecipitated from BMMC lysates (P42227 2-770): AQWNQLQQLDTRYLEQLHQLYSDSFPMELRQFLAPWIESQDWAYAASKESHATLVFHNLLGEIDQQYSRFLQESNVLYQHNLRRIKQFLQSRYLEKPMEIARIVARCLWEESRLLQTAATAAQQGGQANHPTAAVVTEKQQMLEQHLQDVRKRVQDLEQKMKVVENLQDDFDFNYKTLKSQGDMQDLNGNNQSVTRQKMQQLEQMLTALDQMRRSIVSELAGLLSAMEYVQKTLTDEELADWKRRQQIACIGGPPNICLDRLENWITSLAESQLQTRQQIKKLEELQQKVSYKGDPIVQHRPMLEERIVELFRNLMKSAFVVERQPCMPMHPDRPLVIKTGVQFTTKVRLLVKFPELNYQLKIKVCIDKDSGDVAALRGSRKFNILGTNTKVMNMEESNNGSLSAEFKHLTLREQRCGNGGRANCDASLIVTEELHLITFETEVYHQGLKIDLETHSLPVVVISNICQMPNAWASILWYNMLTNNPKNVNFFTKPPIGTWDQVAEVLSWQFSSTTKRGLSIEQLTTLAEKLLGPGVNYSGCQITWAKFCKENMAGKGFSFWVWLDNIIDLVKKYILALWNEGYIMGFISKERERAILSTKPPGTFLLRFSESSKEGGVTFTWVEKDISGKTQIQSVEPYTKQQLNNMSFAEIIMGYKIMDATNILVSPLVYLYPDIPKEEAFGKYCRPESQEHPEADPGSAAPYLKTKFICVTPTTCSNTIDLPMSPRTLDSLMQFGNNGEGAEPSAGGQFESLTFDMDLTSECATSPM

## recombinant CD45 (intracellular dual PTPase domains, Mr 97K, catalytic D1 and non-catalytic D2, lacking extracellular regions)
[1]
  dephosphorylation of critical tyrosine residues in vitro (site-specific phospho-specific antibodies): rCD45 does indeed dephosphorylate the critical tyrosine residues of JAK1, JAK2, and Tyk2 in vitro
[2]
  dephosphorylation of critical tyrosine residues in vitro (site-specific phospho-specific antibodies): rCD45 does indeed dephosphorylate the critical tyrosine residues of JAK1, JAK2, and Tyk2 in vitro
  tyrosine dephosphorylation in vitro (phosphatase assay, immunoblot): rCD45 did, however, dephosphorylate JAK2 in vitro
[3]
  tyrosine dephosphorylation in vitro (phosphatase assay, immunoblot): rCD45 dephosphorylated Lyn in a dose-dependent manner
[4]
  tyrosine dephosphorylation in vitro (phosphatase assay, immunoblot): tyrosine dephosphorylation of STAT3 (FIGS. 3A and 3B) and STAT5 did not occur after incubation with rCD45, even at high concentrations of rCD45
[5]
  tyrosine dephosphorylation in vitro (phosphatase assay, immunoblot): tyrosine dephosphorylation of STAT3 (FIGS. 3A and 3B) and STAT5 did not occur after incubation with rCD45, even at high concentrations of rCD45
[6]
  dephosphorylation of critical tyrosine residues in vitro (site-specific phospho-specific antibodies): rCD45 does indeed dephosphorylate the critical tyrosine residues of JAK1, JAK2, and Tyk2 in vitro

## PTPase-dead rCD45 (D1:C828S mutant)
[2]
  tyrosine dephosphorylation in vitro (phosphatase assay): PTPase-dead rCD45 (D1:C828S mutant) did not dephosphorylate JAK2
